Assays:
[1] = target: Pyrococcus furiosus MCM N-terminal domain (PfMCM 1-256) (Pyrococcus furiosus) (UniProt Q8U3I4); test: crystal structure; PfMCMN without DNA; sitting drop, 18°C, 0.2 M sodium malonate pH 7.0, 20% PEG 3350; 2.65 Å; one hexamer in the asymmetric unit
[2] = target: Pyrococcus furiosus MCM N-terminal domain (PfMCM 1-256) (Pyrococcus furiosus) (UniProt Q8U3I4); test: crystal structure; PfMCMN with 30-mer poly-dT ssDNA; hanging drop, 18°C, 50 mM MES pH 6.0, 10 mM Mg(OAc)2, 28.5% PEG 3350; 3.2 Å; two hexamers in the asymmetric unit
[3] = target: T1, PfMCMN WT (Pyrococcus furiosus, UniProt Q8U3I4 1-256); test: crystal structure (3.2 A); 10 mM Mg(OAc)2 in well solution; Zn-binding subdomain; EMSA: 20 mM HEPES pH 7.6, 200 mM NaCl, 5 mM MgCl2, 5 mM bME, 25 C, 30 min, 160 nM DNA; 4-20% TBE PAGE; details: protein: recombinant; tags: His6-SUMO removed by Ulp1; in-frame BamHI site may leave extra N-terminal residues
T1 sequence: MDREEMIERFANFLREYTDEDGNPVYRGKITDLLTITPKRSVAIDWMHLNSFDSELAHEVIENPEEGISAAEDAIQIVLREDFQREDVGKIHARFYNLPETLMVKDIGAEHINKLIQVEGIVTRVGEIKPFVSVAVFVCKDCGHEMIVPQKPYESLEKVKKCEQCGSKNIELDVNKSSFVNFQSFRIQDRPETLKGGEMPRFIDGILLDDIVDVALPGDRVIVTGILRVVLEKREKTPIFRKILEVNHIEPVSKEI

[4] = target: T1, PfMCMN WT; test: EMSA; 5 mM Mg2+; EMSA: 20 mM HEPES pH 7.6, 200 mM NaCl, 5 mM MgCl2, 5 mM bME, 25 C, 30 min, 160 nM DNA; 4-20% TBE PAGE; details: protein: recombinant, tags: His6-SUMO removed by Ulp1, in-frame BamHI site may leave extra N-terminal residues

“Pyrococcus furiosus MCM N-terminal domain (PfMCM 1-256) (from UniProt Q8U3I4 1-256) (domain or fragment)” was tested. Which stoichiometry N [1] did it give?
The stoichiometry N was 6.

What about the stoichiometry N [2] of the same molecule?
Its stoichiometry N is 6.

Does TTTTTTTTTTTTTTTTTTTTTTTTTTTTTT (ssDNA) [poly-dT 30-mer] bind [3]?
Result: binds

With TTTTTTTTTTTTTTTTTTTTTTTTTTTTTTTTTTTTTTTT (ssDNA) [T40 ssDNA] as the molecule, how does the “apparent K (half saturation)” value ([4]; label: 5'-fluorescein) read?
Its value is 6.8 µM.

B1: 26-mer dsDNA (dsDNA)
DNA 1: ATGGCAGATCTCAATTGGATATCGGC
DNA 2: GCCGATATCCAATTGAGATCTGCCAT
For B1, which “apparent K (half saturation)” value ([4]; label: 5'-fluorescein on strand 1, blunt) is on record?
Its value is 7 µM.

Source: PMC3970758, “A conserved MCM single-stranded DNA binding element is essential for replication initiation”
